Measured values: PMC7343212, “Lactoferrin-Hexon Interactions Mediate CAR-Independent Adenovirus Infection of Human Respiratory Cells” (Journal of Virology, 2020)
“Also recorded” adds a separate entry of the source.

B1: human lactoferrin (protein, UniProt P02788 20-710, looked up)
Lactotransferrin: GRRRSVQWCAVSQPEATKCFQWQRNMRKVRGPPVSCIKRDSPIQCIQAIAENRADAVTLDGGFIYEAGLAPYKLRPVAAEVYGTERQPRTHYYAVAVVKKGGSFQLNELQGLKSCHTGLRRTAGWNVPIGTLRPFLNWTGPPEPIEAAVARFFSASCVPGADKGQFPNLCRLCAGTGENKCAFSSQEPYFSYSGAFKCLRDGAGDVAFIRESTVFEDLSDEAERDEYELLCPDNTRKPVDKFKDCHLARVPSHAVVARSVNGKEDAIWNLLRQAQEKFGKDKSPKFQLFGSPSGQKDLLFKDSAIGFSRVPPRIDSGLYLGSGYFTAIQNLRKSEEEVAARRARVVWCAVGEQELRKCNQWSGLSEGSVTCSSASTTEDCIALVLKGEADAMSLDGGYVYTAGKCGLVPVLAENYKSQQSSDPDPNCVDRPVEGYLAVAVVRRSDTSLTWNSVKGKKSCHTAVDRTAGWNIPMGLLFNQTGSCKFDEYFSQSCAPGSDPRSNLCALCIGDEQGENKCVPNSNERYYGYTGAFRCLAENAGDVAFVKDVTVLQNTDGNNNEAWAKDLKLADFALLCLDGKRKPVTEARSCHLAMAPNHAVVSRMDKVERLKQVLLHQQAKFGRNGSDCPDKFCLFQSETKNLLFNDNTECLARLHGKTTYEKYLGPQYVAGITNLKKCSTSPLLEACEFLRK
notes: Human LF purified from human tear fluid by size exclusion chromatography
B2: rhLF: recombinant hLF produced in Aspergillus awamori, human amino acid backbone, high-mannose glycosylation pattern (protein, UniProt P02788 20-710, looked up)
Lactotransferrin: B1 Lactotransferrin
modifications: recombinant, expressed in Aspergillus awamori
B3: bovine lactoferrin (protein, UniProt P24627 20-708, looked up)
Lactotransferrin: APRKNVRWCTISQPEWFKCRRWQWRMKKLGAPSITCVRRAFALECIRAIAEKKADAVTLDGGMVFEAGRDPYKLRPVAAEIYGTKESPQTHYYAVAVVKKGSNFQLDQLQGRKSCHTGLGRSAGWIIPMGILRPYLSWTESLEPLQGAVAKFFSASCVPCIDRQAYPNLCQLCKGEGENQCACSSREPYFGYSGAFKCLQDGAGDVAFVKETTVFENLPEKADRDQYELLCLNNSRAPVDAFKECHLAQVPSHAVVARSVDGKEDLIWKLLSKAQEKFGKNKSRSFQLFGSPPGQRDLLFKDSALGFLRIPSKVDSALYLGSRYLTTLKNLRETAEEVKARYTRVVWCAVGPEEQKKCQQWSQQSGQNVTCATASTTDDCIVLVLKGEADALNLDGGYIYTAGKCGLVPVLAENRKSSKHSSLDCVLRPTEGYLAVAVVKKANEGLTWNSLKDKKSCHTAVDRTAGWNIPMGLIVNQTGSCAFDEFFSQSCAPGADPKSRLCALCAGDDQGLDKCVPNSKEKYYGYTGAFRCLAEDVGDVAFVKNDTVWENTNGESTADWAKNLNREDFRLLCLDGTRKPVTEAQSCHLAVAPNHAVVSRSDRAAHVKQVLLHQQALFGKNGKNCPDKFCLFKSETKNLLFNDNTECLAKLGGRPTYEEYLGTEYVTAIANLKKCSTSPLLEACAFLTR
notes: bovine lactoferrin from cow milk (Sigma)

Assays:
[1] = test system: human respiratory epithelial A549 cells (HAdV-C5_GFP); test: HAdV-C5_GFP transduction of A549 cells; type: cell-based; settings: for effect of LF on HAdV-C5_GFP transduction of A549 cells (in words): GFP imaging after 44 h (Fig. 1A)
Text: For all transduction experiments, GFP-expressing vectors were used. The HAdV_GFP vector was purchased from Vector Development Laboratory. All mutated HAdV-C5 vectors were generated in the laboratory of A. Plückthun at the University of Zürich using the AdEasy system (Agilent) to contain an internal ribosome entry site (IRES)-luciferase (Luc)-GFP cassette for detection of transduction. To investigate the role of integrins in transduction, HAdV-C5-IRES-GFP with an intact RGD loop in the penton base protein (-DMNDHAIRGDTFATRAE-) and HAdV-C5-ΔRGD-IRES-GFP (-DMNDTSRAEEKRAE-), known not to bind integrins ([40]), were generated. To determine the binding site for hLF/hLfcin on the hexon protein, hexon-mutated vectors were produced with HVR-1 of HAdV-C5 ([43]) replaced with the corresponding sequence of HAdV-A31, as well as a HAdV-C5 vector mutated in HVR-7 ([44]).
For experiments in A549 cells, 15,000 cells were seeded into a black 96-well plate with a transparent bottom. For experiments with CHO-K1 cells, 20,000 cells were seeded. After 24 h, HAdV-C5 vectors was complexed with 2 μM Lfcin or with ∼12 μM (1 mg/ml) of LF and, after 60 min, added to the cells on ice. The blocking of CAR using soluble HAdV-C5 fiber knob was performed using 10 μg/ml of recombinant knob. After another 60 min, unbound complex was washed away using Dulbecco’s modified Eagle’s medium (DMEM), followed by final addition of fresh medium. After 44 h, the cells were fixed using 4% paraformaldehyde (PFA) for 10 min, and GFP expression was imaged using a Trophos system (Luminy Biotech Entreprises). For the hexon chimeric viruses, transduction was instead quantified by measuring the luciferase activity at 44 h postinfection using a Pierce luciferase glow assay kit.

HAdV-A31 hexon = test: Surface plasmon resonance, HAdV-A31 hexon immobilized; type: binding; settings: analyte hLF, HBS-EP+ pH 7.4, 25°C, average from three independent measurements
Procedure: (§1) Ten flasks of 70% confluent A549 cells were infected with HAdV-C5, HAdV-A31, or HAdV-B35. After initial inoculation, unbound virus was washed away, and approximately 30 ml of fresh medium (DMEM plus 20 mM HEPES [N-2-hydroxyethylpiperazine-NN-2-ethanesulfonic acid] plus 5% FBS) was added. At 48 h after infection, the cells were harvested by scraping into a small volume of DMEM, centrifuged, and resuspended in 6 ml of DMEM. The collected cells were lysed and the sample cleared by centrifugation. Virus was separated from soluble viral components by a CsCl gradient, as described previously ([59]). After ultracentrifugation, the top phase containing soluble viral components was recovered, and HAdV hexons were purified using monoclonal hexon antibodies (MAB8052) covalently attached to magnetic protein A/G beads (Pierce) using dimethyl pimelimidate (DMP) according to the manufacturer’s instructions. Bound hexons were washed three times using PBS to remove protein bound unspecifically, followed by elution in 50 μl of 200 mM glycine buffer at pH 2.5.
CM5 sensor chips, an amine-coupling kit, and HBS-EP+ buffer (10 mM HEPES, 150 mM NaCl, 3 mM EDTA, and 0.005% [vol/vol] surfactant P20 [pH 7.4]) were all purchased from GE Healthcare. All surface plasmon resonance (SPR) experiments were performed at 25°C in HBS-EP+ running buffer with adenovirus hexons immobilized on the sensor surface. In addition, all experiments were performed with the same batch of LF/Lfcin. Data were collected with a Biacore T200 instrument at a rate of 1 Hz. HAdV hexons were coupled to the CM5 sensor chip by amine coupling reactions according to the manufacturer’s instructions, aiming for an immobilization density of 900 to 1,100 resonance units (RU). The surface of the upstream flow cell was used as a reference and was subjected to the same coupling reaction in the absence of protein. […]

HAdV-C5 hexon = target: T1, HAdV-C5 hexon (Human adenovirus C serotype 5, UniProt P04133); test: Surface plasmon resonance, HAdV-C5 hexon immobilized; type: binding
T1 construct: the top phase containing soluble viral components was recovered, and HAdV hexons were purified using monoclonal hexon antibodies; made in house; host or cells: A549 cells infected with wild-type HAdV-C5 (strain Ad75)
Procedure: as §1
(§2) CM5 sensor chips, an amine-coupling kit, and HBS-EP+ buffer (10 mM HEPES, 150 mM NaCl, 3 mM EDTA, and 0.005% [vol/vol] surfactant P20 [pH 7.4]) were all purchased from GE Healthcare. All surface plasmon resonance (SPR) experiments were performed at 25°C in HBS-EP+ running buffer with adenovirus hexons immobilized on the sensor surface. In addition, all experiments were performed with the same batch of LF/Lfcin. Data were collected with a Biacore T200 instrument at a rate of 1 Hz. HAdV hexons were coupled to the CM5 sensor chip by amine coupling reactions according to the manufacturer’s instructions, aiming for an immobilization density of 900 to 1,100 resonance units (RU). The surface of the upstream flow cell was used as a reference and was subjected to the same coupling reaction in the absence of protein. The analytes were serially diluted in running buffer to prepare a 2-fold concentration series ranging from 8 nM to 2 μM and then injected in series over reference and experimental biosensor surfaces for 120 sec at a flow rate of 30 μl/min. Blank samples containing only running buffer were also injected under the same conditions to allow for double referencing. After each cycle, the biosensor surface was regenerated with a 60-sec pulse of 10 mM Tris-glycine (pH 1.5) at a flow rate of 30 μl/min.

[2] = test system: epithelial and T cells (species C HAdVs); settings: ref [15], cited from earlier work
Text: This is surprising, as hLF usually exerts antimicrobial functions ([22][–][24]), as well as preventing virus attachment to target cells and/or inhibiting virus replication ([25][–][27]). hLF is produced largely by neutrophils, but also by primary epithelial cells, and it is naturally present in a vast majority of body fluids in concentrations of up to several mg/ml, where it protects epithelia from pathogens ([28][–][31]). […] In this study, we investigated the molecular mechanisms behind hLF-dependent infection. As a first step, we investigated the structural features whereby hLF mediates HAdV-C5 infection of human respiratory A549 cells. In total, we used three different types of lactoferrin, namely, hLF purified from human tear fluid (present in several mg/ml), a recombinant form of hLF produced in Aspergillus with a human amino acid backbone but with a high-mannose glycosylation pattern ... || Utilization of hLF/hLfcin by species C HAdVs could also account for the frequent and persistent infections of species C HAdVs in tonsil T lymphocytes in young children ([56]). […] Taken together, our results highlight the ingenuity of HAdVs and explain how they may ensure efficient infection in a very hos ...

HAdV-B35 hexon = test: Surface plasmon resonance, HAdV-B35 hexon immobilized; type: binding
Procedure: as §1, §2

[3] = test system: A549 cells (HAdV-C5 virions); test: 35S-labeled HAdV-C5 virion binding to A549 cells; type: cell-based, Human; settings: at this concentration (2 μM), Fig. 1C
Procedure: A549 cells were detached using phosphate-buffered saline (PBS) plus 0.05% EDTA with slow rocking at 37°C. Once detached, the cells were centrifuged at 1,500 × g for 5 min, resuspended in growth medium to about 2 × 10^6 cells/ml, and allowed to recover at 37°C, slowly rocking to keep the cells in suspension. While recovering, the HAdV-Lfcin complex was set up. Lfcin (2 μM), or an equivalent volume of PBS, was mixed with ^35S-labeled HAdV (15,000 particles/cell) in medium and left on ice at 4°C for 60 min. After 60 min of recovery, the cells were counted, and 150,000 viable cells were added to each well of a 96-V-shaped-well plate and centrifuged for 5 min at 1,500 × g. Once pelleted, the cells were resuspended in the HAdV-Lfcin solution or in HAdV-PBS solution and incubated on ice for 60 min at 4°C. After 60 min, the cells were pelleted and washed once in medium and once in PBS before the addition of scintillation fluid and quantification using a Wallac 1450 Microbeta counter (Trilux).

[4] = association rate constant, analyte hLF, SPR, HBS-EP+ pH 7.4, 25°C, average from three independent measurements
[5] = dissociation rate constant, analyte hLF, SPR, HBS-EP+ pH 7.4, 25°C, average from three independent measurements
[6] = LF 1 mg/ml preincubated with HAdV-C5_GFP

T1 sequence (P04133 2-952 limits assumed): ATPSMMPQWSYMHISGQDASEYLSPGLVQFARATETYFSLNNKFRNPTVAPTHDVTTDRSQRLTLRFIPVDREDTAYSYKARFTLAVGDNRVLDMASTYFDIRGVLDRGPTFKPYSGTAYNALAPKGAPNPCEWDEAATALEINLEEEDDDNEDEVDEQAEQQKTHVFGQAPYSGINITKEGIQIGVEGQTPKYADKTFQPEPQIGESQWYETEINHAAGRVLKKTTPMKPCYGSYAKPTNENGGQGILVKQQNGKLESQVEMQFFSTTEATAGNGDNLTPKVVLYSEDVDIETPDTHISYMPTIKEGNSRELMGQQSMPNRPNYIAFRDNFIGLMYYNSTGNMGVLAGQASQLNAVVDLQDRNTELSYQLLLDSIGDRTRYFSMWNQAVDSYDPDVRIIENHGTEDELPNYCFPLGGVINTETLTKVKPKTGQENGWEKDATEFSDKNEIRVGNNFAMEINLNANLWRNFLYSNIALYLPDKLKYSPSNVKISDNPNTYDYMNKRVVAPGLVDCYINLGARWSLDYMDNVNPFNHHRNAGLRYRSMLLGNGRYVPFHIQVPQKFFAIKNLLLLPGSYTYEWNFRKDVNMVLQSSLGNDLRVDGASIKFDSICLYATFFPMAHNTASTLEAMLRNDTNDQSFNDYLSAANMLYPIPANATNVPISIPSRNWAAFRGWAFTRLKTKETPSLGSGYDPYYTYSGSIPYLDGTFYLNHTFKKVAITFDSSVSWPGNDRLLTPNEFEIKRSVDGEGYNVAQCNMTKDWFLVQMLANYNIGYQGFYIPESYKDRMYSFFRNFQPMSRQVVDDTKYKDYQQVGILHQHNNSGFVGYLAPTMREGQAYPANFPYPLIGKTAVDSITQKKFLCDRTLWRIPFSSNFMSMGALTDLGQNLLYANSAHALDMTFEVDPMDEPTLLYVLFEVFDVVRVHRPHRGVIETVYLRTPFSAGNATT

Molecule | increase of HAdV-C5_GFP transduction of A549 cells by LF ([1]; LF 1 mg/ml preincubated with HAdV-C5_GFP, GFP imaging after 44 h, mean from 3 to 5 independent experiments (Fig. 1A)) [fold] | prevention of transduction at high concentration ([1]; high, nonphysiological concentrations, data not shown, cell line not stated, also ref [15]) | Kd (HAdV-A31 hexon; SPR Biacore T200, HAdV-A31 hexon on CM5 chip, 2-fold series 8 nM to 2 μM) [nM] | ka (HAdV-A31 hexon; association rate constant, SPR) [M⁻¹ s⁻¹] | kd (HAdV-A31 hexon; dissociation rate constant, SPR) [s⁻¹] | Kd (HAdV-C5 hexon; SPR Biacore T200, HAdV-C5 hexon amine-coupled on CM5 chip (900 to 1,100 RU), analyte hLF, 2-fold series 8 nM to 2 μM, HBS-EP+ pH 7.4, 25°C, average from three independent measurements) [nM] | affinity ratio, HAdV-C5 hexon stronger than HAdV-B35 hexon (HAdV-C5 hexon; SPR, 25°C, pH 7.4, HAdV-C5 versus HAdV-B35 hexon) | ka (HAdV-C5 hexon; [4]) [M⁻¹ s⁻¹] | kd (HAdV-C5 hexon; [5]) [s⁻¹] | effect on HAdV-C5 infection of CAR-negative T cells ([2]; CAR-negative T cells) | effect on species C HAdV infection [2] | Kd (HAdV-B35 hexon; SPR Biacore T200, HAdV-B35 hexon on CM5 chip, analyte hLF, 2-fold series 8 nM to 2 μM, HBS-EP+ pH 7.4, 25°C, average from three independent measurements) [nM] | affinity ratio, HAdV-B35 hexon stronger than HAdV-A31 hexon (HAdV-B35 hexon; SPR, 25°C, pH 7.4, HAdV-B35 versus HAdV-A31 hexon) [fold] | ka (HAdV-B35 hexon; [4]) [M⁻¹ s⁻¹] | kd (HAdV-B35 hexon; [5]) [s⁻¹] | effect of LF on HAdV-C5_GFP transduction of A549 cells (in words) [1, 6] | effect on HAdV-C5 transduction of A549 cells (in words) ([1]; at this concentration (2 μM), Fig. 1D) | effect on HAdV-C5 binding to A549 cells (in words) [3]
B1 | 4 | able to prevent transduction | 827 ± 55 | 12000 ± 1100 | 0.01011 ± 0.00024 | 29 ± 3.6 | about 5 fold | 53000 ± 2600 | 0.00154 ± 0.00024 | facilitates HAdV-C5 infection | efficiently increases species C HAdV infection; also recorded: all species C HAdVs infect epithelial and T cells more efficiently | 151 ± 14 | 5 | 25000 ± 2500 | 0.00354 ± 0.00014 |  |  | 
B2 |  |  |  |  |  |  |  |  |  |  |  |  |  |  |  | Neither bLF nor rhLF affected HAdV-C5_GFP transduction |  | 
B3 |  |  |  |  |  |  |  |  |  |  |  |  |  |  |  | Neither bLF nor rhLF affected HAdV-C5_GFP transduction | no or little effect | no or little effect
